Results as given in patent US20200087373A1 (UNIVERSITY OF COPENHAGEN, published 2020).
Ends that are not written are not given here. * marks the point of attachment. C16 diacid = O=C(O)CCCCCCCCCCCCCCC(=O)*; Stearoyl = CCCCCCCCCCCCCCCCCC(=O)*; Palmitoyl = CCCCCCCCCCCCCCCC(=O)*

T1: human GIP receptor (human, UniProt P48546 22-466)
T1 construct: whole, on cells; also called hGIPR
T1 sequence (looked up): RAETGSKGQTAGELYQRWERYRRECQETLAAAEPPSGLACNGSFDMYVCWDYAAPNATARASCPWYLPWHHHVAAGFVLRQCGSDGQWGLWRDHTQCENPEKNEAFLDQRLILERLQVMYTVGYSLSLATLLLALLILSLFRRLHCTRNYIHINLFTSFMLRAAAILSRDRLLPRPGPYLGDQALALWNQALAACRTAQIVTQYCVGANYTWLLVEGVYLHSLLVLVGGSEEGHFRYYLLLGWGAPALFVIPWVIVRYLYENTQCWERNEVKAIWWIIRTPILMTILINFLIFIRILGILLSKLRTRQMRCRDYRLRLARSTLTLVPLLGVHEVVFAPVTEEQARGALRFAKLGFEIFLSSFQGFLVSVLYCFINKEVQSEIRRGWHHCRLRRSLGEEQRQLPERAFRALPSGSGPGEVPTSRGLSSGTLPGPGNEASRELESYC


Key:
human GIP receptor [1] = biological target: T1, human GIP receptor; assay: 125I-hGIP competition binding, COS-7 cells expressing hGIPR;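 note: nonspecific binding taken as radioligand bound by untransfected cells, binding buffer with or without 2% HSA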
Method: (§1) After incubation, the cells were washed twice in ice-cold binding buffer (+/−2% HSA) and lysed using 200 mM NaOH with 1% SDS for 30 min. Nonspecific binding was determined as the binding of radioactive ligand to untransfected cells.

human GIP receptor [2] = biological target: T1, human GIP receptor; assay: cell-based or functional assay
human GIP receptor [3] = biological target: T1, human GIP receptor; assay: 125I-hGIP competition binding, COS-7/hGIPR, 0.1% casein;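 note: nonspecific binding defined as radioligand binding measured on untransfected cells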
Method: as §1

Binder | IC50 (human GIP receptor [1]) | log IC50 (human GIP receptor [1]) | cAMP agonism, Emax (human GIP receptor [2]) | cAMP antagonism (human GIP receptor [2]) | cAMP antagonism, log (human GIP receptor [2]) | cAMP agonism (human GIP receptor [2]) | cAMP agonism, EC50 (log) (human GIP receptor [2]) | IC50 (human GIP receptor [3]) | logIC50 (human GIP receptor [3])
TFISDYSIAMDK(C18 fatty acyl)IHQQDFVNWLLAQK-NH2 [AT128 [hGIP(5-30)NH2-C18/16]] | 466 nM | -6.3 log M | – | – | – | – | – | – | –
K(C16 diacid)FISDYSIAMDKIHQQDFVNWLLAQK-NH2 (N-terminus assumed; SMILES CC[C@H](C)[C@H](NC(=O)[C@H](CO)NC(=O)[C@H](Cc1ccc(O)cc1)NC(=O)[C@H](CC(=O)O)NC(=O)[C@H](CO)NC(=O)[C@@H](NC(=O)[C@H](Cc1ccccc1)NC(=O)[C@@H](N)CCCCNC(=O)CCCCCCCCCCCCCCC(=O)O)[C@@H](C)CC)C(=O)N[C@@H](C)C(=O)N[C@@H](CCSC)C(=O)N[C@@H](CC(=O)O)C(=O)N[C@@H](CCCCN)C(=O)N[C@H](C(=O)N[C@@H](Cc1c[nH]cn1)C(=O)N[C@@H](CCC(N)=O)C(=O)N[C@@H](CCC(N)=O)C(=O)N[C@@H](CC(=O)O)C(=O)N[C@@H](Cc1ccccc1)C(=O)N[C@H](C(=O)N[C@@H](CC(N)=O)C(=O)N[C@@H](Cc1c[nH]c2ccccc12)C(=O)N[C@@H](CC(C)C)C(=O)N[C@@H](CC(C)C)C(=O)N[C@@H](C)C(=O)N[C@@H](CCC(N)=O)C(=O)N[C@@H](CCCCN)C(N)=O)C(C)C)[C@@H](C)CC) [AT293 [hGIP(5-30)NH2[T5KK]-C16diacid/5]] | – | – | 0 | 14 nM | -7.8 log M | – | – | – | –
TFISDYSIAMDKIK(Stearoyl)QQDFVNWLLAQK-NH2 (N-terminus assumed; SMILES CCCCCCCCCCCCCCCCCC(=O)NCCCC[C@H](NC(=O)[C@@H](NC(=O)[C@H](CCCCN)NC(=O)[C@H](CC(=O)O)NC(=O)[C@H](CCSC)NC(=O)[C@H](C)NC(=O)[C@@H](NC(=O)[C@H](CO)NC(=O)[C@H](Cc1ccc(O)cc1)NC(=O)[C@H](CC(=O)O)NC(=O)[C@H](CO)NC(=O)[C@@H](NC(=O)[C@H](Cc1ccccc1)NC(=O)[C@@H](N)[C@@H](C)O)[C@@H](C)CC)[C@@H](C)CC)[C@@H](C)CC)C(=O)N[C@@H](CCC(N)=O)C(=O)N[C@@H](CCC(N)=O)C(=O)N[C@@H](CC(=O)O)C(=O)N[C@@H](Cc1ccccc1)C(=O)N[C@H](C(=O)N[C@@H](CC(N)=O)C(=O)N[C@@H](Cc1c[nH]c2ccccc12)C(=O)N[C@@H](CC(C)C)C(=O)N[C@@H](CC(C)C)C(=O)N[C@@H](C)C(=O)N[C@@H](CCC(N)=O)C(=O)N[C@@H](CCCCN)C(N)=O)C(C)C) [AT161 [hGIP(5-30)NH2[H18K]-C18/18]] | – | – | 7 | 252 nM | -6.6 log M | 1060 nM | -6 log M | – | –
TFISDYSIAMDRIK(C16 diacid)QQDFVNWLLAQR-NH2 (N-terminus assumed; SMILES CC[C@H](C)[C@H](NC(=O)[C@H](CO)NC(=O)[C@H](Cc1ccc(O)cc1)NC(=O)[C@H](CC(=O)O)NC(=O)[C@H](CO)NC(=O)[C@@H](NC(=O)[C@H](Cc1ccccc1)NC(=O)[C@@H](N)[C@@H](C)O)[C@@H](C)CC)C(=O)N[C@@H](C)C(=O)N[C@@H](CCSC)C(=O)N[C@@H](CC(=O)O)C(=O)N[C@@H](CCCNC(=N)N)C(=O)N[C@H](C(=O)N[C@@H](CCCCNC(=O)CCCCCCCCCCCCCCC(=O)O)C(=O)N[C@@H](CCC(N)=O)C(=O)N[C@@H](CCC(N)=O)C(=O)N[C@@H](CC(=O)O)C(=O)N[C@@H](Cc1ccccc1)C(=O)N[C@H](C(=O)N[C@@H](CC(N)=O)C(=O)N[C@@H](Cc1c[nH]c2ccccc12)C(=O)N[C@@H](CC(C)C)C(=O)N[C@@H](CC(C)C)C(=O)N[C@@H](C)C(=O)N[C@@H](CCC(N)=O)C(=O)N[C@@H](CCCNC(=N)N)C(N)=O)C(C)C)[C@@H](C)CC) [AT157 [hGIP(5-30)NH2[K16R; H18K; K30R]-C16diacid/18]] | – | – | 12 | 7 nM | -8.1 log M | 3 nM | -8 log M | – | –
{C18 fatty acyl}-TFISDYSIAMDKIHQQDFVNWLLAQK-NH2 [AT127 [hGIP(5-30)NH2-C18/5]] | 2040 nM | -5.7 log M | – | – | – | – | – | 1470 nM | -5.8 log M
TFISDYSIAMDKIK(C16 diacid)QQDFVNWLLAQK-NH2 (N-terminus assumed; SMILES CC[C@H](C)[C@H](NC(=O)[C@H](CO)NC(=O)[C@H](Cc1ccc(O)cc1)NC(=O)[C@H](CC(=O)O)NC(=O)[C@H](CO)NC(=O)[C@@H](NC(=O)[C@H](Cc1ccccc1)NC(=O)[C@@H](N)[C@@H](C)O)[C@@H](C)CC)C(=O)N[C@@H](C)C(=O)N[C@@H](CCSC)C(=O)N[C@@H](CC(=O)O)C(=O)N[C@@H](CCCCN)C(=O)N[C@H](C(=O)N[C@@H](CCCCNC(=O)CCCCCCCCCCCCCCC(=O)O)C(=O)N[C@@H](CCC(N)=O)C(=O)N[C@@H](CCC(N)=O)C(=O)N[C@@H](CC(=O)O)C(=O)N[C@@H](Cc1ccccc1)C(=O)N[C@H](C(=O)N[C@@H](CC(N)=O)C(=O)N[C@@H](Cc1c[nH]c2ccccc12)C(=O)N[C@@H](CC(C)C)C(=O)N[C@@H](CC(C)C)C(=O)N[C@@H](C)C(=O)N[C@@H](CCC(N)=O)C(=O)N[C@@H](CCCCN)C(N)=O)C(C)C)[C@@H](C)CC) [AT156 [hGIP(5-30)NH2[H18K]-C16diacid/18]] | – | – | 12 | 12 nM | -7.9 log M | 2 nM | -9 log M | – | –
TFISDYSIAMDKIHQQDFVNWLLAQK(Palmitoyl)-NH2 (N-terminus assumed; SMILES CCCCCCCCCCCCCCCC(=O)NCCCC[C@H](NC(=O)[C@H](CCC(N)=O)NC(=O)[C@H](C)NC(=O)[C@H](CC(C)C)NC(=O)[C@H](CC(C)C)NC(=O)[C@H](Cc1c[nH]c2ccccc12)NC(=O)[C@H](CC(N)=O)NC(=O)[C@@H](NC(=O)[C@H](Cc1ccccc1)NC(=O)[C@H](CC(=O)O)NC(=O)[C@H](CCC(N)=O)NC(=O)[C@H](CCC(N)=O)NC(=O)[C@H](Cc1c[nH]cn1)NC(=O)[C@@H](NC(=O)[C@H](CCCCN)NC(=O)[C@H](CC(=O)O)NC(=O)[C@H](CCSC)NC(=O)[C@H](C)NC(=O)[C@@H](NC(=O)[C@H](CO)NC(=O)[C@H](Cc1ccc(O)cc1)NC(=O)[C@H](CC(=O)O)NC(=O)[C@H](CO)NC(=O)[C@@H](NC(=O)[C@H](Cc1ccccc1)NC(=O)[C@@H](N)[C@@H](C)O)[C@@H](C)CC)[C@@H](C)CC)[C@@H](C)CC)C(C)C)C(N)=O) [AT126 [hGIP(5-30)NH2-C16/30]] | 7790 nM | -5.1 log M | – | – | – | – | – | – | –
